Results from patent US20090304581A1.

Molecular target: CD20 on Daudi cells (human) (UniProt P11836)
Assay: live-cell radioimmunoreactivity assay on Daudi cells, cell pellet cpm over total cpm

Sequence of UniProt P11836 (P11836 whole entry): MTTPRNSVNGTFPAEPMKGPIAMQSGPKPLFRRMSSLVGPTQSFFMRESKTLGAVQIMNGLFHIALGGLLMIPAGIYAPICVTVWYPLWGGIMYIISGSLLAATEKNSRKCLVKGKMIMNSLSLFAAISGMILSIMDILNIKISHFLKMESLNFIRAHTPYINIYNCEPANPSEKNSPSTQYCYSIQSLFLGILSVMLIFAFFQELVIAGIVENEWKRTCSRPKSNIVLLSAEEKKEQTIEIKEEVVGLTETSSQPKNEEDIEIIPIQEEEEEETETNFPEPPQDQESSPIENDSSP

maximum binding (immunoreactive fraction): 29%
Substance: SWNT-rituximab-111In*DOTA (antibody)
